The source of these data is US20170052184A1 (published 2017).

The target of assay [1] is T1, HCV Core1-169 (HCV-1, UniProt P26664 1-169).
T1 construct: also called recombinant HCV core antigen
T1 sequence: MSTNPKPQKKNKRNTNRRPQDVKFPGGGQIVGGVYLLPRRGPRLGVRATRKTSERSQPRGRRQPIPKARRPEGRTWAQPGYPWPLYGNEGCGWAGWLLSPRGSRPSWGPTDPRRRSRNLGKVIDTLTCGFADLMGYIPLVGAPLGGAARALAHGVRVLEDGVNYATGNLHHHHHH
The assay is described as follows: EIA, core1-169 coated on plate.

For assay [2], the target named is T1, HCV Core1-169. The assay is described as follows: EIA, core1-169 captured by mAb 14-153-229.
Also: test concentration or dose not given here.

B1: HCV 208B-178 (antibody, V domains shown)
VH: DVKLVESGGGLVKLGGSLKLSCAASGFTFSSYYMSWVRQTPEKRLELVAAINSNGGSTYYPDTVKGRFTISRDNAKNTLYLQMSSLKSEDTALYYCARHGGLGRRDWYFDVWGAGTTVTVSS
VL: DIVLTQSPASLAVSLGQRATISCRASESVDNYGISFMHWYQQKPGQPPKLLIYRASNLESGIPARFSGSGSRTDFTLTINPVETDDVATYYCQQSNKDPFTFGSGAKLEIKR
In the case of B1, the “OD (A492)” value with HCV Core1-169 [1] was determined as 0.89 OD; with HCV Core1-169 [2] it was 1.09 OD.

B2: HCV 208A-877 (antibody, V domains shown)
VH: QLQQSGPELVKPGASVKISCKTSGYTFTENAMHWVKQSRGKSLEWIGGVNPNNGDTVYTQKFKGKATLTVAKSSSTAYMELRTMTCEESTVYYCASREPDFFDYWGQGSSVTVSS
VL: QIVLTQSPAIMSVSPGEKVSMTCSASSSVTYMHWYQQKSGTSPKRWIYDTSELASGVPARFSGSGSGTTYSLTISSMEAEDAATYYCQQWSNKPLTFGAGTKLELKR
With B2, the “OD (A492)” value was determined as 0.9 OD with HCV Core1-169 [1] and 1.25 OD with HCV Core1-169 [2].

B3: HCV 208B-517 (antibody, V domains shown)
VH: QVQLKQSGPGLVQPSQSLSITCTVSGFSLITHGVHWVRQSPGKGLEWLGVIWSGGSTDYNAAFISRLSISKDTSKSQVFLKMSSLQADDTAIYYCARNGGATAFDYWGQGTTLTVSS
VL: DIVMTQSPATLSVTPGDRVSLSCRASQSISDYLHWYQQKSHESPRLLIKYASQSISGIPSRFRGSGSGSHFTLSINSVEPEDVGVYYCQNGHSFPWTFGGGTKLEIKR
Turning to B3, the entries for the “OD (A492)” value in the assay with HCV Core1-169 [1] and with HCV Core1-169 [2] were 0.79 OD and 0.97 OD, respectively.

B4: HCV 208B-189 (antibody, V domains shown)
VH: QVHLQQSGAELAKPGASVQMSCKASGYTFTANKMHWARQRPRQGLEWIGYIDPASGYTEYNQKIKDRATLTADKSSSTAYMQLSSLTSEDSAVYYCTNFAYWGQGTLVTVST
VL: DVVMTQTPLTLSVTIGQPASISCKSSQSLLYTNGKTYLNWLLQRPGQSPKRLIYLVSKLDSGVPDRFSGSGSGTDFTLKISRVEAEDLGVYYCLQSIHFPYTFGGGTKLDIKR
Regarding B4, the “OD (A492)” value in the assay with HCV Core1-169 [1] was 0.49 OD; with HCV Core1-169 [2] it was 1.81 OD.

B5: HCV 208B-1024 (antibody, V domains shown)
VH: EVQLVESGGDLVKPGGSLKLSCAASGFTFSNYGMSWVRQTPDKRLEWVATISSGGSYSYYPDSVKGRFTISRDNAKNILYLQMSSLKSEDTAMYYCASLYYGYGDYWGQGTAFTVSS
VL: DVLMTQTPLSLPVSLGDQASISCRSSQSIVHSNGNTYLEWYLQKLGQSPKLLIYRVSNRFSGVPDRFSGSGSGTDFTLKISRVEAEDLGVYYCFQGSHVPWTFGGGTKLEIKR
Regarding B5, the results for the “OD (A492)” value with HCV Core1-169 [1] and with HCV Core1-169 [2] were 0.6 OD and 0.31 OD, respectively.

B6: HCV 208A-352 (antibody, V domains shown)
VH: QGQMQQSGAELVKPGASVKLSCKTSGFTFSSSFISWLKQKPGQSLEWIAWIYAGTGNTNYNQKFTDKAQLTVDTSSSTAYMQFSSLTTEDSAIYYCAISGTGFTYWGQGTLVTVSA
VL: DVLMAQTPLSLPVTLGDQASISCRSSQSLVHSNGNTYLEWFLQKPGQSPKLLIYNVSNRFSGVPDRFSGSGSGTDFTLKISRVEAEDLGVYYCFQGSHVPLTFGSGTKLEIKR
With B6, the “OD (A492)” value came out at 0.1 OD with HCV Core1-169 [1] and 0.53 OD with HCV Core1-169 [2].

B7: HCV 208B-281 (antibody, V domains shown)
VH: QGQLQQSGAELVKPGASVKLSCKTSGFTFSSSYISWLKQRPGQSLEWIAWIYAGTGGTNYNQKFTDKAQLTVDTSSSTAYMQFSSLTTEDSAIYYCAISGTGFIYWGQGTLVTVSA
VL: DVLMTQTPLSLPVSLGDQASISCRSSQSLVHNNGNTYLEWFLQKPGQSPKLLIYKVSNRFSGVPDRFSGSGSGTDFTLKISRVEAEDLGVYYCFQGSHVPFTFGSGTKLEIKR
With B7, the “OD (A492)” value with HCV Core1-169 [1] amounted to 0.09 OD; in the assay with HCV Core1-169 [2], 0.11 OD.

B8: HCV 208B-327 (antibody, V domains shown)
VH: EVQLVESGGGLVKPGGSLKLSCAASGFTFSDSYMYWVRQTPDQRLEWVATISDGGSYTFYPDSVKGRFTISRDNAQNNLYLQMSSLKSEDTAMYYCASPHAGYFGWFAYWGRGTLVTVSA
VL: DIVMTQAAFSNPVTPGTSVSISCRSSKSLLHSNGITYLYWYLQKPGQSPQLLIYQMSKIASGVPDRFRSSGSGTDFTLRISRVEAADVGVYYCAQNLELPWTFGGGTKLEIKR
Turning to B8, the “OD (A492)” value is 0.14 OD in the assay with HCV Core1-169 [1] and 0.11 OD with HCV Core1-169 [2].

B9: HCV 208B-556 (antibody, V domains shown)
VH: QLQQSGPVLVKPGASVMISCKTSGYTFTENAMHWVKQSHGKSLEWIGGVNPNNGDTIFNQKFKGKATLTVDKSSSTAFMEFRSLTSEESTVYYCVRRELDFFDYWGQGTSVTVSS
VL: DIVLTQSPASLAVSLGQRATISCRASQSVSTSRYSYMHWYQQKPGQPPKLLIKYASNLESGVPARFSGSGSGTDFTLNIHPVAEEDTATYYCQHSWEFPFTFGSGTKLEIKR
Consider B9, for which the “OD (A492)” value with HCV Core1-169 [1] was found to be 0.74 OD; with HCV Core1-169 [2], 1.35 OD.

B10: HCV 208A-830 (antibody, V domains shown)
VH: EVRLQQPGPEVEKPGASVKISCKTSGYTFTEYAIHWVKQSHGESLEWIGGINPSNGDPIYNQIFKDKATLTVDRSSNTAYMGLRSLTVGDSGVYFCVRRQLDYFDFWGQGASLTVSS
VL: DIVLTQSPASLAVSLGQRATISCRSSQSVSTSRYSYLHWYQQKPGQPPKLLIKYASNLESGVPARFSGSGSGTDFTLNIHPVGEEDPATYYCQHSWEFPFTFGSGTKLEIKR
Turning to B10, the “OD (A492)” value in the assay with HCV Core1-169 [1] turned out to be 1.16 OD; in the assay with HCV Core1-169 [2], 2.09 OD.

B11: HCV 208A-1064 (antibody, V domains shown)
VH: EVQLQQSGPELVKPGASVKISCKTSGYTFTEYAMHWMKQSHGKSLEWIGGINPTNGDTIYNQKFKDKAKLTVDRSSSTAYMELRSLTSDDSALFYCARRELDYFASWGQGTTLTVSS
VL: DIVLTQSPASLIVSLGQTATISCRASQSVSTSRFSYLHWIQQKPGQPPKLLIKYASNLESGVPVRFSGSGSGTDFTLNIHPVEEEDTATYFCQHSWEFPFTFGSGTKLKIKR
Turning to B11, the “OD (A492)” value is 0.94 OD with HCV Core1-169 [1] and 1.57 OD with HCV Core1-169 [2].

B12: HCV 208B-1094 (antibody, V domains shown)
VH: EVQLQQSGPELVKPGASVKISCKTSGYTFTEYAMHWMKQSHGKSLEWIGGINPTNGDTIYNQRFKDKAKLTVDRSSSTAYMELRSLTSDDSALFYCARRELDYFASWGQGTTLTVSS
VL: DIVLTQSPASLIVSLGQTATISCRASQSLSTSRFSYVHWIQQKPGQPPKLLIKYASNLESGVPVRFSGSGSGTDFTLNIHPVEEEDTATYFCQHSWEFPFTFGSGTKLKIKR
Consider B12, for which the “OD (A492)” value with HCV Core1-169 [1] amounted to 0.9 OD; with HCV Core1-169 [2], 1.51 OD.

B13: HCV 208A-293 (antibody, V domains shown)
VH: EVQLQQSGPELVKPGASVKISCKASGFTFTEYAMHWMKQSHGKSLEWIGGINPTNGDAIYNQKFKDKAKLTVDRSSSTAYMELRSLTSDDSALFYCARRELDYFPSWGQGTTLTVSS
VL: DIVLTQSPASLIVSLGQRATISCRASQSVSTSRFSYVHWIQQKPGQPPKLLIKYASNLESGVPVRFSGSGSGTDFILNIHPVEEEDTATYFCQHSWEFPFTFGSGTKLEIKR
For the molecule B13, the “OD (A492)” value with HCV Core1-169 [1] stood at 1.41 OD; with HCV Core1-169 [2], 2.31 OD.

B14: HCV 208B-515 (antibody, V domains shown)
VH: QVQLQQPGAELVKPGASLKLSCRASGYTFTSYWIHWVKQRPGQGLEWIGEIDPSDSYTNYNQKFKGKATLTVDKSSRAAYMQLSSLTSEDSAVYYCARHYYGVFDSWGQGTKLTVSS
VL: QIVFTQYPAIMSASLGERVTMTCTASSSVTSSYLHWFQQKPGSSPKLWIYSTSNPGSGVPARFSGRGSGTSYSLSISSMEAEDAATYYCLQFHRSPWTFGGGTKLEIRR
For the molecule B14, the “OD (A492)” value was found to be 0.06 OD in the assay with HCV Core1-169 [1] and 0.08 OD with HCV Core1-169 [2].

B15: HCV 208B-408 (antibody, V domains shown)
VH: EVKLVESGGGLVQPGGSLRLSCASSGFTFTDYYMSWVRQPPGKALEWLGFIRNKAYGYTTEFSASVNGRFTISRDDSQSVPYLQMNTLRAEDSATYYCARVLYYDYGGFAYWGQGTLVTVST
VL: DIQMTQSPASLSASVGETVTITCRASGNIHTYLAWYQQKQGKSPQLLVYNANTLADGVPSRFSGSGSGTQFSLKINSLQPDDFGSYYCQHFWSAPWTFGGGTQLEIKR
Regarding B15, the “OD (A492)” value with HCV Core1-169 [1] and in the assay with HCV Core1-169 [2] was 0.09 OD each time.

B16: HCV 208B-1096 (antibody, V domains shown)
VH: QVQLQQSGAGLAKPGASVKMSCKASGYTFTANKMHWAKQRPGQGLEWIGYIDPSSGYTEYNHKIQYKATLTADTSSSTAYMQLSTLTFEDSAVYYCTNFAYWGQGTLVTVSA
VL: DIVMTQTPLTLSVTIGQPASISCKSSQSLLFTNGKTYLNWFLQRPGQSPKRLIYLLSKLDSGVPDRFSGSGSGTDFTLKISRVEAEDLGVYYCLQSTYFPLTFGAGTKLELKR
Take B16: the “OD (A492)” value in the assay with HCV Core1-169 [1] turned out to be 0.49 OD; with HCV Core1-169 [2], 1.75 OD.

B17: HCV 208B-395 (antibody, V domains shown)
VH: QVQLQQSGAGLAKPGASVKMSCKASGYTFTANKMHWTKQRPGQGLEWIGYIDPSSGYTQYNHKIQDKATLTADTSSSTAYMQLSSLTFEDSAVYYCTNFAYWGQGTLVTVSA
VL: DIVLTQSPATLSVTPGDRVSLSCRASQRIYNYLHWYQQKSHESPRLLIKYASQSISGIPSRFSGSGSGTDFILTINSVETEDFGMYFCQQSNSWPLTFGAGTKLELRR
In the case of B17, the results for the “OD (A492)” value in the assay with HCV Core1-169 [1] and with HCV Core1-169 [2] were 0.5 OD and 1.95 OD, respectively.

B18: HCV 208B-547 (antibody, V domains shown)
VH: QVQLQQSGAELAKPGASVKMSCKASGYTFTSNKMHWAKQRPGQGLEWIGYIDPSSGYTEYNQKIKDKATLTADKSSSTAYMQLSSLTSEDSAVYYCTNFAYWGQGTLVTVSA
VL: EVVLTQSPAITAASLGQKVTITCRASSSVSYMHWYRQKSGTSPQPWIYEISTLASGVPTRFRASGSGTSYSLTISSMEAEDAAIYYCQQWNYPLTFGAGTKLELKR
As to B18, the “OD (A492)” value in the assay with HCV Core1-169 [1] is 0.46 OD; with HCV Core1-169 [2] it was 1.62 OD.

B19: HCV 208B-589 (antibody, V domains shown)
VH: QVQLQQSGAGLAKPGASVKMSCKASGYTFTANKMHWAKQRPGQGLEWIGYIDPSSGYTEYNHKIQDKATLTADTSSSTAYMQLSSLTFEDSAVYYCTNFAYWGQGTLVTVSA
VL: DIVMTQTPLTLSVTIGQPASISCKSSQSLLFTNGKTYLNWFLQRPGQSPKRLIYLLSKLDSGVPDRFSGSGSGTDFTLKISRVEAEDLGVYYCLQSTYFPLTFGAGTKLELKR
For B19, the figures for the “OD (A492)” value with HCV Core1-169 [1] and with HCV Core1-169 [2] were 0.68 OD and 1.29 OD, respectively.
